Consider two substances from US7198903B2, “Binding domains between presenilins and their substrates as targets for drug screening” (Vlaams Interuniversitair Instituut voor Biotechnologie VZW, priority 2001, dated 2007).

This assay addresses T1, γ-secretase cleavage of APP-C99 (CHAPS extracts of HeLa cell membranes) (Homo sapiens, UniProt P49768).
T1 construct: CHAPS extracts of HeLa cell membranes were incubated with the APP-C99flag-tagged substrate; endogenous in cells; host or cells: HeLa cell membranes (CHAPS extract)
Kind of assay: cell-free assay of in vitro production of amyloid peptides (Aβ) from APP-C99flag-tagged substrate, SDS-PAGE/western blotting. In kind it is biochemical. The note with it: CHAPS extracts of HeLa cell membranes incubated with APP-C99flag-tagged substrate plus peptide; DMSO control; western blot with antibody recognizing Aβ (FIG. 6). The text has this:
FIG. 6: Peptides that mimic the binding domains in PS1 or APP inhibit the in vitro production of amyloid peptides (Aβ). The PS1-APP binding is mediated by the C-terminus of PS1 (and the first transmembrane domain of PS1) and part of the APP transmembrane region downstream of the γ-secretase cleavage site (and bearing the FAD-associated mutations affecting the γ-secretase cleavage). Peptides mimicking these domains were synthesized as such or with a conserved transmembrane region (TMR) or palmityol group (palm) attached to it. The amino acid sequence of the transmembrane region is NH2-[…]-COOH (SEQ ID NO:20) and the origin of the TMR is fully described in PCT International Publication WO 02/00882. CHAPS extracts of HeLa cell membranes were incubated with the APP-C99flag-tagged substrate in the presence of DMSO (control) or the different peptides at the concentrations indicated (peptide). γ-secretase inhibitor (10 μM) was included as a positive control for Aβ inhibition. After the reaction, samples were analyzed by SDS-PAGE followed by western blotting using an antibody recognizing Aβ. […]
Fixed amounts of recombinant APP-C99 are mixed with cleared cell extracts (for example extracted with Triton X100, CHAPS, CHAPSO or Nonidet p40) and incubated overnight at 37° C. or 4° C. De novo formed Aβ is monitored by SDS/PAGE combined with western blotting. […]
For orientation: Immunoblotting shows a protein as a band on a membrane.

T1 sequence (Q96BI3 whole entry, other chains not shown): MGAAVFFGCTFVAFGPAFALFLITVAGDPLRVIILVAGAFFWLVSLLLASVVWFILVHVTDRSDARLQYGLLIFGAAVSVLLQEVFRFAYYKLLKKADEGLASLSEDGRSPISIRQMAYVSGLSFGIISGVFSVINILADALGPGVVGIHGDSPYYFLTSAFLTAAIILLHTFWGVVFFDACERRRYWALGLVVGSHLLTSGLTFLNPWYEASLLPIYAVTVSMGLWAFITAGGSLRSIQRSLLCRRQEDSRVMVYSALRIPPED
T1 sequence (Q92542 34-709, other chains not shown, further chain): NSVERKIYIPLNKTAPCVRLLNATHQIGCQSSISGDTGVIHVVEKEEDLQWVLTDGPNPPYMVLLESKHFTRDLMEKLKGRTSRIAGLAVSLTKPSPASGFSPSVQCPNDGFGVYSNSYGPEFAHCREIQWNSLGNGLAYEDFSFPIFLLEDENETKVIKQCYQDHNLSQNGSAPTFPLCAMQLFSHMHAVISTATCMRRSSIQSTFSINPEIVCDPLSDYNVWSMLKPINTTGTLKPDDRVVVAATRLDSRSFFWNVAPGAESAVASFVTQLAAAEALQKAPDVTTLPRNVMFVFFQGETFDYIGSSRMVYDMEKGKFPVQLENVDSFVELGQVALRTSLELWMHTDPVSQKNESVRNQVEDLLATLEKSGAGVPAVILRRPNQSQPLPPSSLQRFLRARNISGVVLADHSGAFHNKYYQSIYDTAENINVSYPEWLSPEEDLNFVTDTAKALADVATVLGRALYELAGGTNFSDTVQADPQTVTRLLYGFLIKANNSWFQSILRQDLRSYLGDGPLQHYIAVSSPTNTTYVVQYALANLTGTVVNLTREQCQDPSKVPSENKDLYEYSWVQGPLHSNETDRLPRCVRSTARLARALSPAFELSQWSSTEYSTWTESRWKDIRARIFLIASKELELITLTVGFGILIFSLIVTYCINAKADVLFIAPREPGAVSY
T1 sequence (Q9NZ42 whole entry, other chains not shown, further chain): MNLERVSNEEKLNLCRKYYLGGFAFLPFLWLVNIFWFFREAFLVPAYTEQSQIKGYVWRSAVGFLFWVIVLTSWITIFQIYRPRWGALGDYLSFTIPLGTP

For “NH2-ATVIVITLVMLK KKQ-TMR-COOH [SEQ ID NO:12]”, the “inhibition of in vitro Aβ production” value is “highest inhibition”. The value for “NH2-VVIATVIVITLVMLKKKQ-TMR-COOH [SEQ ID NO:7]” was “highest inhibition”.
